Source: the supplement of paper PMC9170038

System: MS2 coat protein
Assay: apparent KD of MS2 coat protein; higher = weaker reporter binding
Conditions: Eterna round: R107
In short: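 For every design, apparent KD is the median of normalised binding-curve fits from its clusters. The RNA switches were transcribed on-chip from Illumina sequencing clusters and titrated with SNAP-549-labelled MS2 coat protein (twofold steps, 0.7 or 1.5 nM to 3 µM; 0.8–1.5 h to 10–20 min per step). Titrations used 100 mM Tris-HCl pH 7.5, 80 mM KCl, 4 mM MgCl2, without or with constant ligand.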

[1] = input ligand: theophylline 20 uM
[2] = input ligand: theophylline 2 mM
[3] = input ligand: tryptophan 2.4 mM

Sequence | apparent KD of MS2 coat protein (input ligand: arginine 13.2 mM) | apparent KD of MS2 coat protein (input ligand: none) | apparent KD of MS2 coat protein [1] | apparent KD of MS2 coat protein [2] | apparent KD of MS2 coat protein [3]
GUCGGAGUCUGAAGGAGCGACAUGAGGAUCACCCAUGUCUCCCGUUAUGGGAGUUCCUUAGGUCAGGUAGGUCGCAGACUCCGAC [#1 Exclusion - Arginine B Attempt #25 (Inspired by Omei)] | 78.1 nM | 141 nM | 145 nM | 144 nM | 140 nM
AUAAUUGGGUUAAUUAGUUUUAGGUCCAGUCGAGGACCGGUACGGCCGCCACUCGUUCCGAGAUACAUGAGGAUCACCCAUGUUA [JR_ExcTryptoA_Sub015] | 17.3 nM | – | 34.5 nM | 31 nM | –
UCGUGAGUUUCGGAUACCAGUGUGGUCGAUACAUGAGGAUCACCCAUGUUAGAGGAGGUACACCCUUGGCAGCCGGCUGUGGCGG [hlhmullin] | 31.4 nM | 23.5 nM | 35.4 nM | 18.1 nM | 25 nM
CCAUGCGUAGGAAGGAGCGCAUACUUCACAUGAGGAUCACCCAUGUCGAGACGUGAGUCAGUGCAGGUAGGUCGCCUACGCAUGG [Same State - Arginine B (Freestyle 27)] | 16.6 nM | 17.6 nM | 24.3 nM | 20.6 nM | 19.4 nM
GCAUCCUAGUCGGCCGCCACUGCAUGUAGAUACCUGCUACAUGAACAUGAGGAUCACCCAUGUAGCAGGACCGGGACUAGGAUGC [(Trp1)-(MT)''-(MT)'-(Ms2)-(Trp2)_Design1] | 47.4 nM | 58.8 nM | 63.6 nM | 69.4 nM | 15.5 nM
AUGUCGUUGAAUAUAGCGGCUUGGAGUGAUACCAGCAUGAUCCAAUGCCCUUGGCAGCAUAACAUGAGGAUCACCCAUGUUCCAG [SSTheo A #26] | 32.7 nM | – | 68.7 nM | – | 30.1 nM
ACCAGCACACAUGAUACCAGCGACAUGAGGAUCACCCAUGUACGGCGUGUAUCGAAAGGUUGCCCUUGGCAGCAUGAUAGUGCUA [Ratiarla] | 14.5 nM | – | 28.2 nM | – | 12.8 nM
CACGAAAGAUCGGCCGCCACUAAUCGAUGUGUUCUUUCACAUGAGGAUCACCCAUGUUCUUGCGUUAGGACCGGGAUUGAGCGUG [#01 Exclusion Tryptophan B] | 32.1 nM | – | 50.1 nM | 52.4 nM | –
AUCCAUAGCCGAAGGAGCGCAGUAGGAUGACAUGAGGAUCACCCAUGUGUGUGAUGUGGAUUGCAGGUAGGUCGCGGAGUGGGAU [Exclusion - Arginine B (Freestyle 6)] | 35 nM | 58.7 nM | 135 nM | 63 nM | 47.2 nM
UGUAUGUGAUCUGAUACCAGAGAUGAUAACCUGAGGAUCACCCUGGUAAGGCGAAAGCCACUCCCUUGGCAGCAGAUCGCAUACU | 48.3 nM | 34.4 nM | 40.7 nM | 26.3 nM | 39 nM
UUAGAUAUGACAGAUACCAGCGUGUUGUAGAACAUGAGGAUCACCCAUGUAGUGAUCAAGCGCCCUUGGCAGCUGGUAUGUUUGG [7.X] | 61.5 nM | – | 277 nM | – | 179 nM
UUAUGCAGGUCGGCCGCCACUACACACAUGAGGAUCACCCAUGUAGUUACUGGGUGAAGUGGCAGUAGGACCGGGACCUGCACAC [Brourdmod14] | 148 nM | 470 nM | 403 nM | 823 nM | 891 nM
UGGUACAUGAGGAUCACCCAUGUUCCAGAUACCAGAUACCCGGUUAUCCCUUGGCAGCUGGUGUUACAUGAGGAUCACCCAUGUU [Exclusion Theophylline A GF16] | 23.9 nM | 30.4 nM | 46 nM | 81.9 nM | 37.2 nM
GGCCCUGCGAGCGCUCGCAGGGCCGCGGAUACCAGCGAGGUCCAUCGCCCUUGGCAGCCGAACAUGAGGAUCACCCAUGUCGGUC [#1 Same State - Theophylline A Attempt #11 (HarryS)] | 11.4 nM | 11.6 nM | 18.7 nM | 28.1 nM | 10.7 nM
ACAUGUCUUAUAGAUACCAGACAGGACAUGAGGAUCACCCAUGUAAUGUAUACAUGCAGAGUCCCUUGGCAGCUAAGGUCAUAGA [#26 Same State - Theophylline B] | 54.6 nM | – | 110 nM | – | 92.8 nM
ACAUUGCGCACGGCCGCCACUGGCUAUAGAUUUAUAGCAUUAAUGAACAUGAGGAUCACCCAUGUCAGGACCGGGUGCGAACCAU [SSTryp B #9] | 14 nM | – | 22.7 nM | 27.6 nM | –
UCACAUGAGGAUCACCCAUGUACAGGCGAUACCAGCCGUACAUUGGGCCCUUGGCAGCGCAUCGAGACCUUUAUAAGCACCUCGG [Ceusbi] | 24.5 nM | – | 127 nM | – | 81.6 nM
UGACAUUGCUCAGAUACCAGACGUGAGGAUCACCCACGUGCCAACAUGAGGAUCACCCAUGUCCCUUGGCAGCUGAGCAAUGUCU | 12.8 nM | – | 24.1 nM | – | 15.5 nM
ACCUGUACGAAAAGUGCAGGACAUGGUAAACGAGGACCGGUACGGCCGCCACUCGAAUAACAAGUGGAUCACCCUUGUAACCAUG [TrypAS 5 #AlternativeMS2 #Zipper #StaticStem] | 39.6 nM | 223 nM | 573 nM | 3020 nM | 1090 nM
GCUGAACAUGAGGAUCACCCAUGUCCGGAUACCAGCGGACCUCAUCGCCCUUGGCAGCCGAACCAACAGCUUGUGGUGUUCACUC [theeternabot_sameState_MS2_Theo_A_10] | 32.2 nM | – | 58.2 nM | – | 37.2 nM
AUAACAUGAGGAUCACCCAUGUAAGCUGAAGGAGCGGACGAAAGUCCAGGUAGGUCGCAGCGCUCCUUCUGGUGAUCUGAAGGAG [(M1)-(M2)-(Arg1)-(Arg2)-(A)'-(M)'-(A)''_Design3] | 103 nM | 151 nM | 154 nM | 87.8 nM | 138 nM
GAGCGCGUGGACUGGCGUGCUCCGCUCCGUCGAGGACCGGUACGGCCGCCACUCGACAUGAGGAUCACCCAUGUGUGCGCUCGCG [#1 Exclusion - Tryptophan A Attempt #19 (HarryS)] | 32.9 nM | – | 210 nM | 317 nM | –
UAUAUAUAUCACUAACUGUUCUUGAGGUCUCGAGGACCGGUACGGCCGCCACUCGUACCGCCUCACAUGAGGAUCACCCAUGUCC [XTryp A #1] | 52.2 nM | – | 85.5 nM | 97.6 nM | –
AUCAUGGCCAUCGAUACCAGCUACAUGAGGAUCACCCAUGUAAACGGCCCGGUGAGAUGUAGCCCUUGGCAGCGAAGGGUCAAGG [Ratimatiqu] | 12.4 nM | 16.5 nM | 23.1 nM | 120 nM | 17 nM
AGACAUGAGGAUCACCCAUGUAGUACGGAUACCAGAUCCAGAUGCAUCCCUUGGCAGCUGUGGUACAGCGUUACAUCGCUCGUAG [Exclusion - Theophylline A (Freestyle 22)] | 17 nM | – | 23.9 nM | – | 18.8 nM
UACAGCAGUACGGCCGCCACUCUAAGAUUGCGCGUUUAGGCCAUACAUGAGGAUCACCCAUGUCCGAGGACCGGGUACAGGAAUU [theeternabot_sameState_MS2_Trp_B_29] | 88.3 nM | 185 nM | 416 nM | 502 nM | 89.2 nM
UCGCUCUGGGUGAAUUCCGGAGAUGUGGAAGGAGCGGACGAAAGUCCAGGUAGGUCGCCAUCGAACAUGAGGAUCACCCAUGUAC [Same State - Arginine A (Freestyle 24)] | 55.8 nM | 93.2 nM | 105 nM | 165 nM | 93.7 nM
AAUAACAUGAGGAUCACCCAUGUAAAAGAUACCAGAGUGAUGAUCCUCCCUUGGCAGCUUAAUAACGCUAUUGAUUACAAUAGCG [Mat - Same State Theophlline A - Mod of Eli - D6] | 33.5 nM | – | 98.7 nM | – | 37.2 nM
